Assay results published in EP4799645A2 (GAN & LEE PHARMACEUTICALS CO., LTD., dated 2026).
Numbered stars: 1 amine (or outer) side, 2 acyl side, 3 side chain; on linkers, the order of the positions; unused ones are H or OH. Side chains are listed from the residue outwards. Ends that are not written are not given here. * marks the point of attachment. C22 diacid = O=C(O)CCCCCCCCCCCCCCCCCCCCC(=O)*; γGlu = O=C(O)[C@H](CCC(=O)[*:2])N[*:1]; AEEA = NCCOCCOCC(=O)O

Target: albumin (HSA) (human, UniProt P02768 25-609)
Sequence (P02768 25-609 limits assumed): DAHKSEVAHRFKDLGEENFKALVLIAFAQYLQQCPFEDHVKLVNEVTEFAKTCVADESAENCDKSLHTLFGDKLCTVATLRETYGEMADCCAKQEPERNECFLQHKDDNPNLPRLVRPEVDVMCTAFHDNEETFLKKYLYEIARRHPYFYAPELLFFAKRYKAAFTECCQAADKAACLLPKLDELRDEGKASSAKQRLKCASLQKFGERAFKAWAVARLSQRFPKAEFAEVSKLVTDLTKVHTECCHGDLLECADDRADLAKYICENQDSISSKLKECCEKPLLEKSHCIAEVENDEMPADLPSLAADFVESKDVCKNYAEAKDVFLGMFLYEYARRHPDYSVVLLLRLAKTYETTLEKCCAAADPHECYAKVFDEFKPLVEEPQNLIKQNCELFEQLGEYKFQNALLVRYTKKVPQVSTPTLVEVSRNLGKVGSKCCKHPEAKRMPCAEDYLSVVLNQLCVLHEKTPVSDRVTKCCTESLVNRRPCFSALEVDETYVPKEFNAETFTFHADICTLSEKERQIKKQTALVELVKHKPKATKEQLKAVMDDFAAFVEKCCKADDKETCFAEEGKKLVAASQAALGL
Assay: shift of receptor-binding IC50 between 0.005% and 2% HSA (indirect)

HGEGTFTSDVSSYLEGQAAK([AEEA-AEEA-γGlu-C22 diacid])EFIAWLVRGRG (also called Compound 10)
binding result: binds
